Results taken from FireProtDB (doi:10.1021/bi035651x).
Several values for one entry are separate records, joined by “and”; a condition that tells them apart may be missing. Equal entries are not always repeated.

Conditions: Mus musculus, pH 7.4, 20 °C, Urea, Tris-HCl 20 mM, whole UniProt chain shown

B1: Adenosine deaminase wild type, P03958 (protein)
chain: MAQTPAFNKPKVELHVHLDGAIKPETILYFGKKRGIALPADTVEELRNIIGMDKPLSLPGFLAKFDYYMPVIAGCREAIKRIAYEFVEMKAKEGVVYVEVRYSPHLLANSKVDPMPWNQTEGDVTPDDVVDLVNQGLQEGEQAFGIKVRSILCCMRHQPSWSLEVLELCKKYNQKTVVAMDLAGDETIEGSSLFPGHVEAYEGAVKNGIHRTVHAGEVGSPEVVREAVDILKTERVGHGYHTIEDEALYNRLLKENMHFEVCPWSSYLTGAWDPKTTHAVVRFKNDKANYSLNTDDPLIFKSTLDTDYQMTKKDMGFTEEEFKRLNINAAKSSFLPEEEKKELLERLYREYQ
With B1 the denaturant m value (CD) was 0.89 kcal/mol/M and 0.77 kcal/mol/M, the “denaturant midpoint (higher = more stable)” value (CD) was 6.15 M and 5.77 M and the unfolding free energy (CD) was 5.47 kcal/mol and 4.44 kcal/mol. For the same protein, the denaturant m value (Fluorescence) was 0.85 kcal/mol/M, the “denaturant midpoint (higher = more stable)” value (Fluorescence) was 6.08 M and 5.73 M and the unfolding free energy (Fluorescence) was 5.17 kcal/mol and 4.87 kcal/mol.
